Laboratory results taken from US20030187223A1 (US Dept. of Health and Human Services, published 2003).

Target: T1, bovine serum albumin (bovine, UniProt P02769 25-607)
T1 construct: Control coat in the ELISA; also called BSA
Assay: ELISA, wells coated with BSA alone, Wg conditioned medium
Protocol: First, an ELISA was used to measure sFRP-1 binding to Wg. Wells were coated with purified full-length sFRP-1 and then blocked with an excess of BSA. Subsequently, conditioned medium from S2HSWg cells expressing soluble Wg was incubated in the wells overnight at room temperature. As a control, aliquots of the same medium were incubated in wells treated with BSA but not sFRP-1. […] In contrast, little Wg was detected in wells that had not been treated with sFRP-1 , and no signal was observed when medium lacking Wg was used in the assay (FIG. 3, A and B).
sFRP-1/Wg ELISA Binding Assays—sFRP-1 diluted in 0.02% NaN₃/PBS was incubated in 96-well Falcon ELISA plates (300 ng/[…]) for 2 h at 37° C. After decanting, all wells were filled with 4% BSA/0.02% NaN₃/PBS and incubated for an additional 2 h at 37° C. Following five washes with TAPS (0.05% Tween-20 in 0.02% NaN₃/PBS), […] of Wg-containing or S2 control medium diluted in 1% BSA/TAPS were incubated overnight at room temperature. After five washes with TAPS, […] of Wg mAb diluted in 1% BSA/TAPS to a final concentration of […] was incubated in wells for 2 h at 37° C. Another five washes in TAPS were followed by a 2 h treatment at 37° C. with 1:400 dilution of conjugated alkaline phosphatase-goat anti-mouse IgG (Sigma). […] Absorbance at 405 nm was measured with an ELISA plate reader (Bio-Rad, Hercules, Calif.). […]

T1 sequence (P02769 25-607 limits assumed): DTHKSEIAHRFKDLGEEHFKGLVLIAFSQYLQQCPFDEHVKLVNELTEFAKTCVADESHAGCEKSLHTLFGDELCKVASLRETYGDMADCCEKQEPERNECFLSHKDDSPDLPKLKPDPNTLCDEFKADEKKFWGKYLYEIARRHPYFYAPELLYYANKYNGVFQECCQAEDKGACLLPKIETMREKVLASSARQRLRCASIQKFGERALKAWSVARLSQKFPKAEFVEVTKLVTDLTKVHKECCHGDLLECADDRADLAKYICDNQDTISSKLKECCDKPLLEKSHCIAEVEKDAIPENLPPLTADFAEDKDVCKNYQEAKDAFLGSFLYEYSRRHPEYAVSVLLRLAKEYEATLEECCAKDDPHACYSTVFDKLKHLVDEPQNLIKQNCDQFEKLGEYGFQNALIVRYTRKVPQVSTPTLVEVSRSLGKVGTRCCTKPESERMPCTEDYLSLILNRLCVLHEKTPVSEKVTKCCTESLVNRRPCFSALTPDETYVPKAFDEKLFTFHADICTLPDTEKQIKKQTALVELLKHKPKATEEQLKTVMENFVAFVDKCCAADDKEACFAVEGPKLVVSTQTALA

B1: Wingless (Wg), soluble, in conditioned medium of S2HSWg cells (ligand, Drosophila melanogaster, UniProt P09615 18-468, looked up)
chain: GSSLSQVEGKQKSGRGRGSMWWGIAKVGEPNNITPIMYMDPAIHSTLRRKQRRLVRDNPGVLGALVKGANLAISECQHQFRNRRWNCSTRNFSRGKNLFGKIVDRGCRETSFIYAITSAAVTHSIARACSEGTIESCTCDYSHQSRSPQANHQAGSVAGVRDWEWGGCSDNIGFGFKFSREFVDTGERGRNLREKMNLHNNEAGRAHVQAEMRQECKCHGMSGSCTVKTCWMRLANFRVIGDNLKARFDGATRVQVTNSLRATNALAPVSPNAAGSNSVGSNGLIIPQSGLVYGEEEERMLNDHMPDILLENSHPISKIHHPNMPSPNSLPQAGQRGGRNGRRQGRKHNRYHFQLNPHNPEHKPPGSKDLVYLEPSPSFCEKNLRQGILGTHGRQCNETSLGVDGCGLMCCGRGYRRDEVVVVERCACTFHWCCEVKCKLCRTKKVIYTCL
notes: Used as unpurified conditioned medium; also called Wg medium; Wg-containing medium
binding result: no binding
